From US20200407436A1 (published 2020) come the findings set out here.

The Kd is the free concentration of one partner at which half of the binding sites on the other are occupied at equilibrium, for simple one-to-one binding. A lower Kd goes with higher affinity. As a reminder, the kon is the rate constant with which the complex forms. In general, koff refers to the first-order rate constant of dissociation. The low end stands for slow dissociation, the high end for fast dissociation.

Changes are numbered by the printed parent chain. “And” between values parts separate entries of the source, which are not always exact repeats. Equal entries are not always repeated.

Test [1] deals with T1, mature human TGF-beta 1 (human, UniProt P01137 279-390). Nature of the test: cell-based or functional assay.
Test [2] deals with T2, mature human TGF-beta 2 (human, UniProt P61812 303-414).
T2 sequence: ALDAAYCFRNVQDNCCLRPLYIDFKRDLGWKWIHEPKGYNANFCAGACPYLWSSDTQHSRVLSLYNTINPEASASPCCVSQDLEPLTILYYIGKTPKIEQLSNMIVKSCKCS
Nature of the test: cell-based or functional assay.

In test [3] the target is T3, mature human TGF-beta 3 (human, UniProt P10600 301-412).
T3 sequence: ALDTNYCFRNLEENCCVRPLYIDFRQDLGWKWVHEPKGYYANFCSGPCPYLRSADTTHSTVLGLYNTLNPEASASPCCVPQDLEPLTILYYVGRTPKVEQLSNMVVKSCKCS
Nature of the test: cell-based or functional assay.

Test [4] addresses TGF-beta produced and activated by BxPC3 cells. Nature of the test: cell-based or functional assay.
Test [5] addresses T1, mature human TGF-beta 1. As to the kind of experiment: cell-based or functional assay. The source holds these as a separate data set.
In test [6] the target is T2, mature human TGF-beta 2. Nature of the test: cell-based or functional assay. The source holds these as a separate data set.
Test [7] concerns the target T3, mature human TGF-beta 3. Nature of the test: cell-based or functional assay. The source holds these as a separate data set.
Test [8] has as its target TGF-beta produced and activated by BxPC3 cells. Nature of the test: cell-based or functional assay. This is another data set of the same source.
Test [9] has as its target T1, mature human TGF-beta 1. Nature of the test: SPR Biacore T200, TGF-beta amine-coupled (~150 RU), Fab as analyte; heterogeneous ligand fit, component 1 (KD1; believed occluded, weak interaction). Here is the method: (§1) Background subtraction binding curves were analysed using the Biacore™ T200 evaluation software (version 1.0) following standard procedures.
Background: SPR reads the build-up and loss of mass on a sensor chip optically.

Test [10] deals with T2, mature human TGF-beta 2. Described as above. As to the method:
as §1

Test [11] has as its target T3, mature human TGF-beta 3. The description is as above. As to the method: as §1
Test [12] concerns the target T1, mature human TGF-beta 1. Nature of the test: SPR Biacore T200, TGF-beta amine-coupled (~150 RU), Fab as analyte; heterogeneous ligand fit, component 1 (Ka1; believed occluded, weak interaction). As to the method: as §1
Test [13] concerns the target T2, mature human TGF-beta 2. The description is as above. Here is the method: as §1
Test [14] addresses T3, mature human TGF-beta 3. The test is described as above. As to the method: as §1
Test [15] deals with T1, mature human TGF-beta 1. Nature of the test: SPR Biacore T200, TGF-beta amine-coupled (~150 RU), Fab as analyte; heterogeneous ligand fit, component 1 (Kd1; believed occluded, weak interaction). As to the method:
as §1

Test [16] addresses T2, mature human TGF-beta 2. The test is described as above. As to the method:
as §1

Test [17] has as its target T3, mature human TGF-beta 3. The description is as above. Here is the method:
as §1

Test [18] addresses T1, mature human TGF-beta 1. As to the kind of experiment: SPR Biacore T200, TGF-beta amine-coupled (~150 RU), Fab as analyte; heterogeneous ligand fit, component 2 (KD2; believed non-occluded, representative). Here is the method:
as §1

The target in test [19] is T2, mature human TGF-beta 2. The test is described as above. Here is the method: as §1
The target in test [20] is T3, mature human TGF-beta 3. The description is as above. Here is the method:
as §1

The target in test [21] is T1, mature human TGF-beta 1. As to the kind of experiment: SPR Biacore T200, TGF-beta amine-coupled (~150 RU), Fab as analyte; heterogeneous ligand fit, component 2 (ka2; believed non-occluded, representative). Here is the method: as §1
For test [22], the target named is T2, mature human TGF-beta 2. Described as above. As to the method: as §1
For test [23], the target named is T3, mature human TGF-beta 3. The description is as above. As to the method:
as §1

Test [24] deals with T1, mature human TGF-beta 1. As to the kind of experiment: SPR Biacore T200, TGF-beta amine-coupled (~150 RU), Fab as analyte; heterogeneous ligand fit, component 2 (kd2; believed non-occluded, representative). Here is the method:
as §1

The target in test [25] is T2, mature human TGF-beta 2. The test is described as above. As to the method:
as §1

The target in test [26] is T3, mature human TGF-beta 3. The test is described as above. As to the method: as §1
Test [27] concerns the target T2, mature human TGF-beta 2. As to the kind of experiment: X-ray crystal structure of the complex.

T1 sequence (P01137 279-390 limits assumed): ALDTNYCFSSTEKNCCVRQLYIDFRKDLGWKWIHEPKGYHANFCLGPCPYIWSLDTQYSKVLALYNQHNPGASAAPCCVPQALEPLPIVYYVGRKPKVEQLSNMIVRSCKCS

B1: humanised antibody 4856 Fab graft gL3gH23 (Fab, V domains shown)
VH: EVQLVESGGGLVKPGGSLRLSCAASGFSLSSYDMSWVRQAPGKGLEWIGIIYGGSGSTWYASWAKGRFTISRDSAKNSVYLQMNSLRAEDTAVYYCARGRDAGAGGSRNAYSLWGQGTLVTVSS
VL: AYDMTQSPSTLSASVGDRVTITCQASESIYSGLAWYQQKPGKAPKLLIYAASDLASGVPSRFSGSGSGTEYTLTISSLQPDDFATYYCQQTWTDGGIDNPFGGGTKVEIKR
In the case of B1, the results for the “Geometric mean IC50, HEK-Blue TGF-beta reporter gene assay” value in test [1], in test [2] and in test [3] were 0.41 nM, 0.017 nM and 1.99 nM, respectively. Moreover, in [4], the “Geometric mean IC50, BxPC3 and HEK-Blue TGF-beta reporter gene co-culture assay” value was found to be 9.1 nM.

B2: humanised antibody 4856 Fab graft gL3gH29 (Fab, V domains shown)
VH: B1 VH with N109D, A110G
VL: B1 VL
For B2, the “Geometric mean IC50, HEK-Blue TGF-beta reporter gene assay” value in test [1] stood at 0.255 nM; in test [2], 0.016 nM; in [3], 1.95 nM. In addition, the “Geometric mean IC50, BxPC3 and HEK-Blue TGF-beta reporter gene co-culture assay” value in test [4] came out at 3.77 nM.

B3: humanised antibody 4856 Fab graft gL3gH20 (Fab, V domains shown)
VH: B1 VH with G49S, I70M, R72K, A110G
VL: B1 VL
Take B3: the “Geometric mean IC50, HEK-Blue TGF-beta reporter gene assay” value is 0.038 nM in test [1], 0.011 nM in test [2] and 0.302 nM in test [3]. Further, in test [4], the “Geometric mean IC50, BxPC3 and HEK-Blue TGF-beta reporter gene co-culture assay” value worked out at 4.63 nM.

B4: 4856 rabbit Fab (Fab, V domains shown)
VH: QSLEESGGRLVTPGTPLTLTCTASGFSLSSYDMSWVRQAPGKGLEWIGIIYGGSGSTWYASWAKGRFTMSKTSTTVDLKITSPTTEDMATYFCARGRDGGAGGSRNGYSLWGQGTLVTVSS
VL: AYDMTQTPASVEVAVGGTVTIKCQASESIYSGLAWYQQTPGQRPKLLIYAASDLASGVPSRFKGSGSGTEYTLTISGVECADAATYYCQQTWTDGGIDNPFGGGTEVVVKR
notes: Rabbit variable regions cloned into rabbit Fab no hinge (VH) and rabbit kappa (VL) vectors, expressed in Expi-293 cells; also called BSN.4856.rbFab
Regarding B4, the “Geomean IC50, HEK-Blue TGF-beta reporter gene assay” value was 1.77 unit unclear (column head says nM, but r10 gives the nM value in brackets) and 0.04 nM in [5]; 0.3 unit unclear (column head says nM, but r10 gives the nM value in brackets) and 0.01 nM in test [6]; 24.5 unit unclear (column head says nM, but r10 gives the nM value in brackets) and 0.54 nM in [7]. Further, the “Geomean IC50, BxPC3-HEK-Blue TGF-beta reporter gene co-culture assay” value in test [8] was 3.7 nM. In addition, the Kd in [9] came out at 6.3 nM; in test [10] it was 1.69 nM; in test [11], 12.4 nM; in test [18], 0.112 nM; in test [19], 0.606 nM; in [20], 1.65 nM. Moreover, the kon was 50500 M⁻¹ s⁻¹ in test [12]; 38700 M⁻¹ s⁻¹ in [13]; 63300 M⁻¹ s⁻¹ in [14]; 455000 M⁻¹ s⁻¹ in test [21]; 632000 M⁻¹ s⁻¹ in test [22]; 873000 M⁻¹ s⁻¹ in test [23]. Besides, the koff was 0.000318 s⁻¹ in [15]; 6.55e-05 s⁻¹ in test [16]; 0.000782 s⁻¹ in test [17]; 5.08e-05 s⁻¹ in test [24]; 0.000383 s⁻¹ in [25]; 0.00144 s⁻¹ in [26].

B5: scFv 4856 (scFv)
scFv: EVQLVESGGGLVKPGGSLRLSCAASGFSLSSYDMSWVRQAPGKCLEWIGIIYGGSGSTWYASWAKGRFTISRDSAKNSVYLQMNSLRAEDTAVYYCARGRDAGAGGSRNGYSLWGQGTLVTVSSGGGGSGGGGSGGGGSGGGGSAYDMTQSPSTLSASVGDRVTITCQASESIYSGLAWYQQKPGKAPKLLIYAASDLASGVPSRFSGSGSGTEYTLTISSLQPDDFATYYCQQTWTDGGIDNPFGCGTKVEIKRTENLYFQ
In the case of B5, the binding result in test [27] was “binds”.
